From patent US20230365662A1
Residue numbers refer to the chain shown, from its start. In names and notes the source's numbering stands. Several values for one entry are separate records, joined by “and”; a condition that tells them apart may be missing. Identical values can stand only once.

B1: KB001 mouse Fab FASEBA VH S30E (Fab, V domains shown)
VH: EVQLKQSGPGLVAPSQSLSITCTVSGFSLEIYSVHWVRQPPGKGLEWLGMIWGGGSSDYNSALKSRLSISKDNSKSQVFLKMNSLQTDDTAMYYCARNGNFYAMDYWGQGTSVTVSS
VL: QIVLTQSPAIMSASLGERVTMTCTASSSVSSSFLHWYQQKPGSSPQLWIYSTSNLASGVPARFSGSGSGTSYSLTISSMEAEDAATYYCHQYHHSPYIYTFGGGTKLEIK
B2: KB001 mouse Fab FASEBA VH S30N (Fab, V domains shown)
VH: B1 VH with E30N
VL: B1 VL
B3: KB001 mouse Fab FASEBA VH S61Q (Fab, V domains shown)
VH: B1 VH with E30S, S61Q
VL: B1 VL
B4: KB001 mouse Fab FASEBA VH S61D (Fab, V domains shown)
VH: B1 VH with E30S, S61D
VL: B1 VL
B5: KB001 mouse Fab FASEBA VH S28P (Fab, V domains shown)
VH: B1 VH with S28P, E30S
VL: B1 VL
B6: KB001 mouse Fab FASEBA VH S28E (Fab, V domains shown)
VH: B1 VH with S28E, E30S
VL: B1 VL
B7: KB001 mouse Fab FASEBA VH S30G (Fab, V domains shown)
VH: B1 VH with E30G
VL: B1 VL
B8: KB001 mouse Fab FASEBA VH S30Y (Fab, V domains shown)
VH: B1 VH with E30Y
VL: B1 VL
B9: KB001 mouse Fab FASEBA VH S30A (Fab, V domains shown)
VH: B1 VH with E30A
VL: B1 VL
B10: KB001 mouse Fab FASEBA VH I31T (Fab, V domains shown)
VH: B1 VH with E30S, I31T
VL: B1 VL
B11: KB001 mouse Fab FASEBA VH I31V (Fab, V domains shown)
VH: B1 VH with E30S, I31V
VL: B1 VL
B12: KB001 mouse Fab FASEBA VH I31M (Fab, V domains shown)
VH: B1 VH with E30S, I31M
VL: B1 VL
B13: KB001 mouse Fab FASEBA VH V34I (Fab, V domains shown)
VH: B1 VH with E30S, V34I
VL: B1 VL
B14: KB001 mouse Fab FASEBA VH S56A (Fab, V domains shown)
VH: B1 VH with E30S, S56A
VL: B1 VL
B15: KB001 mouse Fab FASEBA VH S57A (Fab, V domains shown)
VH: B1 VH with E30S, S57A
VL: B1 VL
B16: KB001 mouse Fab FASEBA VH S57V (Fab, V domains shown)
VH: B1 VH with E30S, S57V
VL: B1 VL
B17: KB001 mouse Fab FASEBA VH S57Q (Fab, V domains shown)
VH: B1 VH with E30S, S57Q
VL: B1 VL
B18: KB001 mouse Fab FASEBA VH Y59V (Fab, V domains shown)
VH: B1 VH with E30S, Y59V
VL: B1 VL
B19: KB001 mouse Fab FASEBA VH S61T (Fab, V domains shown)
VH: B1 VH with E30S, S61T
VL: B1 VL
B20: KB001 mouse Fab FASEBA VH S61N (Fab, V domains shown)
VH: B1 VH with E30S, S61N
VL: B1 VL
B21: KB001 mouse Fab FASEBA VH K64A (Fab, V domains shown)
VH: B1 VH with E30S, K64A
VL: B1 VL
B22: KB001 mouse Fab FASEBA VH K64R (Fab, V domains shown)
VH: B1 VH with E30S, K64R
VL: B1 VL
B23: KB001 mouse Fab FASEBA VH S65T (Fab, V domains shown)
VH: B1 VH with E30S, S65T
VL: B1 VL
B24: KB001 mouse Fab FASEBA VH S65D (Fab, V domains shown)
VH: B1 VH with E30S, S65D
VL: B1 VL
B25: KB001 mouse Fab FASEBA VH S65V (Fab, V domains shown)
VH: B1 VH with E30S, S65V
VL: B1 VL
B26: KB001 mouse Fab FASEBA VH G99Y (Fab, V domains shown)
VH: B1 VH with E30S, G99Y
VL: B1 VL
B27: KB001 mouse Fab FASEBA VH G99S (Fab, V domains shown)
VH: B1 VH with E30S, G99S
VL: B1 VL
B28: KB001 mouse Fab FASEBA VH N100E (Fab, V domains shown)
VH: B1 VH with E30S, N100E
VL: B1 VL
B29: KB001 mouse Fab FASEBA VH A103S (Fab, V domains shown)
VH: B1 VH with E30S, A103S
VL: B1 VL
B30: KB001 mouse Fab FASEBA VH Y106L (Fab, V domains shown)
VH: B1 VH with E30S, Y106L
VL: B1 VL
B31: KB001 mouse Fab FASEBA VH Y106T (Fab, V domains shown)
VH: B1 VH with E30S, Y106T
VL: B1 VL
B32: KB001 mouse Fab FASEBA VH Y106A (Fab, V domains shown)
VH: B1 VH with E30S, Y106A
VL: B1 VL
B33: KB001 mouse Fab FASEBA VH Y106V (Fab, V domains shown)
VH: B1 VH with E30S, Y106V
VL: B1 VL
B34: KB001 mouse Fab FASEBA VH Y106R (Fab, V domains shown)
VH: B1 VH with E30S, Y106R
VL: B1 VL
B35: KB001 mouse Fab FASEBA VH Y106I (Fab, V domains shown)
VH: B1 VH with E30S, Y106I
VL: B1 VL
B36: KB001 mouse Fab FASEBA VH Y106M (Fab, V domains shown)
VH: B1 VH with E30S, Y106M
VL: B1 VL
B37: KB001 mouse Fab FASEBA VH Y106F (Fab, V domains shown)
VH: B1 VH with E30S, Y106F
VL: B1 VL
B38: KB001 mouse Fab FASEBA VH Y106Q (Fab, V domains shown)
VH: B1 VH with E30S, Y106Q
VL: B1 VL
B39: KB001 mouse Fab FASEBA VH Y106K (Fab, V domains shown)
VH: B1 VH with E30S, Y106K
VL: B1 VL
B40: KB001 mouse Fab VL T100K (Fab, V domains shown)
VH: B1 VH with E30S
VL: B1 VL with T100K
B41: KB001 mouse Fab VL T100D (Fab, V domains shown)
VH: B1 VH with E30S
VL: B1 VL with T100D

What follows are binders tested against HRgpA-6H (Porphyromonas gingivalis) (UniProt P28784) (assay: ELISA on coated HRgpA-6H).
B1 was tested, and the OD450nm was 0.567 and the Ratio OD(Variant)/OD(WT) was 1.12.
B2 was tested, and the OD450nm was 0.565 and 0.56 and the Ratio OD(Variant)/OD(WT) was 1.12 and 1.11.
In the case of B3, the OD450nm is reported as 0.634 and the Ratio OD(Variant)/OD(WT) is reported as 1.28.
With B4 the Ratio OD(Variant)/OD(WT) was 1.14 and 1.11 (2×) and 0.956.
B5 was tested, and the OD450nm was 0.545 and 0.452 and 0.514 and the Ratio OD(Variant)/OD(WT) was 1.01 and 0.837 and 0.952.
With B6 the OD450nm was 0.561 and 0.551 and 0.494 and the Ratio OD(Variant)/OD(WT) was 1.04 and 1.02 and 0.915.
For B7, the OD450nm was 0.533 and 0.515 and the Ratio OD(Variant)/OD(WT) was 1.06 and 1.02.
For B8, the OD450nm was 0.53 and 0.488 and the Ratio OD(Variant)/OD(WT) was 1.05 and 0.967.
With B9 the OD450nm was 0.534 and 0.499 and 0.494 and the Ratio OD(Variant)/OD(WT) was 1.06 and 0.989 and 0.979.
With B10 the OD450nm was 0.56 and 0.534 and the Ratio OD(Variant)/OD(WT) was 1.11 and 1.06.
For B11, the OD450nm was 0.537 and 0.521 and the Ratio OD(Variant)/OD(WT) was 1.06 and 1.03.
B12 was tested, and the OD450nm was 0.522 and the Ratio OD(Variant)/OD(WT) was 1.03.
In the case of B13, the OD450nm is reported as 0.891 and 0.868 and 0.866 and the Ratio OD(Variant)/OD(WT) is reported as 1.08 and 1.05 (2×).
With B14 the OD450nm was 0.891 and 0.86 and 0.82 and the Ratio OD(Variant)/OD(WT) was 1.01 and 0.978 and 0.932.
B15 gave an OD450nm of 0.922 and a Ratio OD(Variant)/OD(WT) of 1.05.
B16 was tested, and the OD450nm was 0.911 and 0.869 and the Ratio OD(Variant)/OD(WT) was 1.04 and 0.988.
B17 was tested, and the OD450nm was 0.915 and 0.863 and 0.836 and the Ratio OD(Variant)/OD(WT) was 1.04 and 0.981 and 0.951.
With B18 the OD450nm was 0.83 and 0.79 and the Ratio OD(Variant)/OD(WT) was 1.05 and 0.999.
B19 was tested, and the OD450nm was 0.543 and 0.447 and the Ratio OD(Variant)/OD(WT) was 1.1 and 0.906.
B20 showed an OD450nm of 0.537 and a Ratio OD(Variant)/OD(WT) of 1.09.
B21 showed an OD450nm of 0.89 and a Ratio OD(Variant)/OD(WT) of 1.08.
Work on B22 yielded an OD450nm of 0.87 and a Ratio OD(Variant)/OD(WT) of 1.05.
Work on B23 yielded an OD450nm of 0.883 and a Ratio OD(Variant)/OD(WT) of 1.07.
In the case of B24, the OD450nm is reported as 0.866 and 0.897 and the Ratio OD(Variant)/OD(WT) is reported as 1.05 and 1.08.
In the case of B25, the OD450nm is reported as 0.867 and the Ratio OD(Variant)/OD(WT) is reported as 1.05.
Binder B26 has an OD450nm of 0.835 and a Ratio OD(Variant)/OD(WT) of 1.05.
B27 was tested, and the OD450nm was 0.809 and the Ratio OD(Variant)/OD(WT) was 1.01.
B28 was tested, and the OD450nm was 0.886 and the Ratio OD(Variant)/OD(WT) was 1.05.
In the case of B29, the OD450nm is reported as 0.909 and the Ratio OD(Variant)/OD(WT) is reported as 1.05.
B30 gave an OD450nm of 0.791 and a Ratio OD(Variant)/OD(WT) of 1.03.
B31 gave an OD450nm of 0.827 and a Ratio OD(Variant)/OD(WT) of 1.07.
For B32, the OD450nm was 0.821 and 0.835 and the Ratio OD(Variant)/OD(WT) was 1.07 and 1.09.
B33 was tested, and the OD450nm was 0.795 and 0.84 and 0.802 and the Ratio OD(Variant)/OD(WT) was 1.03 and 1.09 and 1.04.
B34 was tested, and the OD450nm was 0.793 and the Ratio OD(Variant)/OD(WT) was 1.03.
In the case of B35, the OD450nm is reported as 0.803 and the Ratio OD(Variant)/OD(WT) is reported as 1.04.
B36 was tested, and the OD450nm was 0.794 and 0.84 and the Ratio OD(Variant)/OD(WT) was 1.03 and 1.09.
With B37 the OD450nm was 0.815 and 0.856 and the Ratio OD(Variant)/OD(WT) was 1.06 and 1.11.
With B38 the OD450nm was 0.792 and the Ratio OD(Variant)/OD(WT) was 1.03.
Binder B39 has an OD450nm of 0.807 and a Ratio OD(Variant)/OD(WT) of 1.05.

These binders were tested against HRgpA-6H (Porphyromonas gingivalis) (UniProt P28784) (assay: ELISA, FASEBA Fab on coated HRgpA-6H).
Binder B40 has an OD450nm of 0.625 and a Ratio OD(Variant)/OD(WT) of 1.19.
Binder B41 has an OD450nm of 0.645 and a Ratio OD(Variant)/OD(WT) of 1.23.
